Several values for one entry are separate records, joined by “and”; a condition that tells them apart may be missing. Identical values can stand only once.
Biological target: the molecule itself
Assay: cross-linking

B1: 6xHis-WT-mVP40 (Marburg virus matrix protein VP40, wild type) (natural protein)
chain: MASSSNYNTYMQYLNPPPYADHGANQLIPADQLSNQQGITPNYVGDLNLDDQFKGNVCHAFTLEAIIDISAYNERTVKGVPAWLPLGIMSNFEYPLAHTVAALLTGSYTITQFTHNGQKFVRVNRLGTGIPAHPLRMLREGNQAFIQNMVIPRNFSTNQFTYNLTNLVLSVQKLPDDAWRPSKDKLIGNTMHPAVSIHPNLPPIVLPTVKKQAYRQHKNPNNGPLLAISGILHQLRVEKVPEKTSLFRISLPADMFSVKEGMMKKRGENSPVVYFQAPENFPLNGFNNRQVVLAYANPTLSAV
**Q.** With B1 as the protein, how does the “stoichiometry N” value read?
**A.** The value was 6 and 4.
